# Data as given in paper PMC8465637, “Three ParA Dimers Cooperatively Assemble on Type Ia Partition Promoters” (Genes, 2021).
# T1: ParA_F (SopA) (plasmid F, UniProt P62556 1-388)
# T1 sequence: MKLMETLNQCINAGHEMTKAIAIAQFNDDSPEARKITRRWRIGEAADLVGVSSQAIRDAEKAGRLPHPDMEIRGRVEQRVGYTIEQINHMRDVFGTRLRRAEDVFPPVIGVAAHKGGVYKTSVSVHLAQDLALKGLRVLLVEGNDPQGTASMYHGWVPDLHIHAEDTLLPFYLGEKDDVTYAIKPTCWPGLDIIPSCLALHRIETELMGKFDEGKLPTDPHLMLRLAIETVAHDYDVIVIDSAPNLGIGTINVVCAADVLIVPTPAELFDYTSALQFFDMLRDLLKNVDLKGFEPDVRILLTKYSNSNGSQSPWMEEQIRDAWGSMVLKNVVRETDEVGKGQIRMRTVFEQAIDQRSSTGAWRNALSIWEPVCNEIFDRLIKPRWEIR
# Columns and labels:
# [1] = tested on: ParB_F (SopB) (plasmid F); assay: EMSA; details: apparent Kd; EMSA: 30 mM HEPES-KOH pH 7.5, 150 mM KCl, 3 mM MgCl2, 1 mM DTT, 10% glycerol, 37 C; SPR: 20 mM Hepes-KOH pH 7.4, 100 mM KCl, 10 mM MgCl2, 1 mM DTT, 24 C; MST: …
# ParA_F (SopA) [2] = target: T1, ParA_F (SopA); assay: fluorescence titration; details: apparent Kd; EMSA: 30 mM HEPES-KOH pH 7.5, 150 mM KCl, 3 mM MgCl2, 1 mM DTT, 10% glycerol, 37 C; SPR: 20 mM Hepes-KOH pH 7.4, 100 mM KCl, 10 mM MgCl2, 1 mM DTT, 24 C; MST: …
# ParA_F (SopA) [3] = target: T1, ParA_F (SopA); assay: fluorescence titration; apparent Kd; EMSA: 30 mM HEPES-KOH pH 7.5, 150 mM KCl, 3 mM MgCl2, 1 mM DTT, 10% glycerol, 37 C; SPR: 20 mM Hepes-KOH pH 7.4, 100 mM KCl, 10 mM MgCl2, 1 mM DTT, 24 C; MST: 10 mM Tris-HCl pH 8, 150 mM NaCl, 50 mM CaCl2, 0.05% Tween 20, 20 mg/mL BSA, 25 C; details: protein: recombinant; tags: none (native); chain copies: 2; label: 5' Cy3
# ParA_F (SopA) [4] = target: T1, ParA_F (SopA); assay: SPR; 1 uM ParA_F, no nucleotide; EMSA: 30 mM HEPES-KOH pH 7.5, 150 mM KCl, 3 mM MgCl2, 1 mM DTT, 10% glycerol, 37 C; SPR: 20 mM Hepes-KOH pH 7.4, 100 mM KCl, 10 mM MgCl2, 1 mM DTT, 24 C; MST: 10 mM Tris-HCl pH 8, 150 mM NaCl, 50 mM CaCl2, 0.05% Tween 20, 20 mg/mL BSA, 25 C; details: protein: recombinant; tags: none (native); chain copies: 2; label: biotin
# ParA_F (SopA) [5] = target: T1, ParA_F (SopA); assay: EMSA; 3 uM ParA_F; EMSA: 30 mM HEPES-KOH pH 7.5, 150 mM KCl, 3 mM MgCl2, 1 mM DTT, 10% glycerol, 37 C; SPR: 20 mM Hepes-KOH pH 7.4, 100 mM KCl, 10 mM MgCl2, 1 mM DTT, 24 C; MST: 10 mM Tris-HCl pH 8, 150 mM NaCl, 50 mM CaCl2, 0.05% Tween 20, 20 mg/mL BSA, 25 C; details: protein: recombinant; tags: none (native); chain copies: 2; label: 5' Cy3
# ParA_F (SopA) [6] = target: T1, ParA_F (SopA); assay: EMSA; 3 mM Mg2+, apparent Kd; EMSA: 30 mM HEPES-KOH pH 7.5, 150 mM KCl, 3 mM MgCl2, 1 mM DTT, 10% glycerol, 37 C; SPR: 20 mM Hepes-KOH pH 7.4, 100 mM KCl, 10 mM MgCl2, 1 mM DTT, 24 C; MST: 10 mM Tris-HCl pH 8, 150 mM NaCl, 50 mM CaCl2, 0.05% Tween 20, 20 mg/mL BSA, 25 C; details: protein: recombinant; tags: none (native); chain copies: 2; label: 5' Cy3
# ParA_F (SopA) [7] = target: T1, ParA_F (SopA); assay: EMSA; equimolar ParB_F; estimate close to the probe concentration; no supershift; EMSA: 30 mM HEPES-KOH pH 7.5, 150 mM KCl, 3 mM MgCl2, 1 mM DTT, 10% glycerol, 37 C; SPR: 20 mM Hepes-KOH pH 7.4, 100 mM KCl, 10 mM MgCl2, 1 mM DTT, 24 C; MST: 10 mM Tris-HCl pH 8, 150 mM NaCl, 50 mM CaCl2, 0.05% Tween 20, 20 mg/mL BSA, 25 C; details: protein: recombinant; tags: none (native); chain copies: 2; label: 5' Cy3
# ParA_F (SopA) [8] = target: T1, ParA_F (SopA); assay: fluorescence titration; EMSA: 30 mM HEPES-KOH pH 7.5, 150 mM KCl, 3 mM MgCl2, 1 mM DTT, 10% glycerol, 37 C; SPR: 20 mM Hepes-KOH pH 7.4, 100 mM KCl, 10 mM MgCl2, 1 mM DTT, 24 C; MST: 10 mM Tris-HCl pH 8, 150 mM NaCl, 50 mM CaCl2, 0.05% Tween 20, 20 mg/mL BSA, 25 C; details: protein: recombinant; tags: none (native); chain copies: 2; label: 5' Cy3
# ParA_F (SopA) [9] = target: T1, ParA_F (SopA); assay: MST; no nucleotide; EMSA: 30 mM HEPES-KOH pH 7.5, 150 mM KCl, 3 mM MgCl2, 1 mM DTT, 10% glycerol, 37 C; SPR: 20 mM Hepes-KOH pH 7.4, 100 mM KCl, 10 mM MgCl2, 1 mM DTT, 24 C; MST: 10 mM Tris-HCl pH 8, 150 mM NaCl, 50 mM CaCl2, 0.05% Tween 20, 20 mg/mL BSA, 25 C; details: protein: recombinant; tags: none (native); chain copies: 2; label: 5' Cy3
# ParA_F (SopA) [10] = target: T1, ParA_F (SopA); assay: SPR; 10 mM Mg2+, no nucleotide; 3 dimers per DNA; EMSA: 30 mM HEPES-KOH pH 7.5, 150 mM KCl, 3 mM MgCl2, 1 mM DTT, 10% glycerol, 37 C; SPR: 20 mM Hepes-KOH pH 7.4, 100 mM KCl, 10 mM MgCl2, 1 mM DTT, 24 C; MST: 10 mM Tris-HCl pH 8, 150 mM NaCl, 50 mM CaCl2, 0.05% Tween 20, 20 mg/mL BSA, 25 C; details: protein: recombinant; tags: none (native); chain copies: 2; label: biotin
# [11] = target: the molecule itself; assay: SEC; analytical gel filtration on a calibrated Superdex 75 10/300GL column; ParAF 4 µM in buffer E (50 mM bis-Tris pH 6, 400 mM NaCl, 0.5 mM DTT), with or without 1 mM ADP; one peak at 9.5 mL
# ParA_F (SopA) [12] = target: T1, ParA_F (SopA); assay: SPR; EMSA: 30 mM HEPES-KOH pH 7.5, 150 mM KCl, 3 mM MgCl2, 1 mM DTT, 10% glycerol, 37 C; SPR: 20 mM Hepes-KOH pH 7.4, 100 mM KCl, 10 mM MgCl2, 1 mM DTT, 24 C; MST: 10 mM Tris-HCl pH 8, 150 mM NaCl, 50 mM CaCl2, 0.05% Tween 20, 20 mg/mL BSA, 25 C; details: protein: recombinant; tags: none (native); chain copies: 2; label: biotin
molecule,measurement,setting,value
120-bp Cy3 probe for ParB_F (non-specific),Kd,[1],1000 nM
75-bp probe with motifs #1 and #3,Kd,ParA_F (SopA) [2],1200 nM
80-bp IR3-4 probe (dsDNA) DNA 1: GGTTTTTTGATGAGTCTCTGATTTTGTTGTTGCTTTGCAGTAAATTCAGAGATTTAATAAAAAAACGCAAAGCAATGATT DNA 2: AATCATTGCTTTGCGTTTTTTTATTAAATCTCTGAATTTACTGCAAAGCAACAACAAAATCAGAGACTCATCAAAAAACC,Kd,ParA_F (SopA) [3],500 ± 325 nM
nsDNA 136-bp (dsDNA) DNA 1: CAGTGAATTGTAATACGACTCACTATAGGGCGAATTGGAGCTCCACCGCGGTGGCGGCCGCTCTAGAACTAGTGGATCCCCCGGGCTGCAGGAATTCGATATCAAGCTTATCGATACCGTCGACCTCGAGGGGGGG DNA 2: CCCCCCCTCGAGGTCGACGGTATCGATAAGCTTGATATCGAATTCCTGCAGCCCGGGGGATCCACTAGTTCTAGAGCGGCCGCCACCGCGGTGGAGCTCCAATTCGCCCTATAGTGAGTCGTATTACAATTCACTG,binding result,ParA_F (SopA) [4],no binding
120-bp IR2-2* (perfect IR in the middle) (dsDNA) DNA 1: GTAGTGTTGCTCTTATTTTAAACAATCAGTAGGTTTTTTGATGACTTTGCGATTTTGTTGTTGTCAGTAAGTAAATTGCAAAGTTTAATAAAAAAACTCAGTACAATGATTAAAGGATGT DNA 2: ACATCCTTTAATCATTGTACTGAGTTTTTTTATTAAACTTTGCAATTTACTTACTGACAACAACAAAATCGCAAAGTCATCAAAAAACCTACTGATTGTTTAAAATAAGAGCAACACTAC,binding result,ParA_F (SopA) [5],no binding
120-bp IR2-2*4 (dsDNA) DNA 1: GTAGTGTTGCTCTTATTTTAAACAATCAGTAGGTTTTTTGATGACTTTGCGATTTTGTTGTTGTCAGTAAGTAAATTGCAAAGTTTAATAAAAAAACGCAAAGCAATGATTAAAGGATGT DNA 2: ACATCCTTTAATCATTGCTTTGCGTTTTTTTATTAAACTTTGCAATTTACTTACTGACAACAACAAAATCGCAAAGTCATCAAAAAACCTACTGATTGTTTAAAATAAGAGCAACACTAC,binding result,ParA_F (SopA) [5],no binding
PparAB_F 120-bp (motifs 122'34) (dsDNA) DNA 1: GTAGTGTTGCTCTTATTTTAAACAACTTTGCGGTTTTTTGATGACTTTGCGATTTTGTTGTTGCTTTGCAGTAAATTGCAAGATTTAATAAAAAAACGCAAAGCAATGATTAAAGGATGT DNA 2: ACATCCTTTAATCATTGCTTTGCGTTTTTTTATTAAATCTTGCAATTTACTGCAAAGCAACAACAAAATCGCAAAGTCATCAAAAAACCGCAAAGTTGTTTAAAATAAGAGCAACACTAC,Kd,ParA_F (SopA) [6],85 ± 20 nM
same,Kd,ParA_F (SopA) [7],~10 nM
same,Kd,ParA_F (SopA) [8],130 nM
same,Kd,ParA_F (SopA) [9],140 ± 23 nM
PparAB_F 136-bp (dsDNA) DNA 1: ATCTCCTTTTGTAGTGTTGCTCTTATTTTAAACAACTTTGCGGTTTTTTGATGACTTTGCGATTTTGTTGTTGCTTTGCAGTAAATTGCAAGATTTAATAAAAAAACGCAAAGCAATGATTAAAGGATGTTCAGAA DNA 2: TTCTGAACATCCTTTAATCATTGCTTTGCGTTTTTTTATTAAATCTTGCAATTTACTGCAAAGCAACAACAAAATCGCAAAGTCATCAAAAAACCGCAAAGTTGTTTAAAATAAGAGCAACACTACAAAAGGAGAT,binding result,ParA_F (SopA) [10],binds
"ParAF (ParA of the Escherichia coli plasmid F partition system ParABSF) (natural protein, UniProt P62556 1-388, looked up, native protein; also called SopA; source: E. coli strain DLT812 derivative carrying pDAG127 (ParaBAD::parAF), purified (heparin, Superdex 200, mono-Q)) MKLMETLNQCINAGHEMTKAIAIAQFNDDSPEARKITRRWRIGEAADLVGVSSQAIRDAEKAGRLPHPDMEIRGRVEQRVGYTIEQINHMRDVFGTRLRRAEDVFPPVIGVAAHKGGVYKTSVSVHLAQDLALKGLRVLLVEGNDPQGTASMYHGWVPDLHIHAEDTLLPFYLGEKDDVTYAIKPTCWPGLDIIPSCLALHRIETELMGKFDEGKLPTDPHLMLRLAIETVAHDYDVIVIDSAPNLGIGTINVVCAADVLIVPTPAELFDYTSALQFFDMLRDLLKNVDLKGFEPDVRILLTKYSNSNGSQSPWMEEQIRDAWGSMVLKNVVRETDEVGKGQIRMRTVFEQAIDQRSSTGAWRNALSIWEPVCNEIFDRLIKPRWEIR",stoichiometry N,[11],2
PparAB_F 58-bp (IR3-4) (dsDNA) DNA 1: TTGTTGTTGCTTTGCAGTAAATTGCAAGATTTAATAAAAAAACGCAAAGCAATGATTA DNA 2: TAATCATTGCTTTGCGTTTTTTTATTAAATCTTGCAATTTACTGCAAAGCAACAACAA,binding result,ParA_F (SopA) [12],no binding
